Where two headings read alike, the source gives them in different places.
Key:
[1] = target: SARS-CoV-2 spike protein receptor binding domain, wild-type (SARS-CoV-2) (UniProt P0DTC2); assay: ITC
[2] = target: SARS-CoV-2 spike protein receptor binding domain, wild-type (SARS-CoV-2) (UniProt P0DTC2); assay: ITC; remark: listed apart in the source

| Substance | Kd [1] | Kd [2] |
| --- | --- | --- |
| CC12.1 single chain variable fragment (scFv) | 23.9 nM | 28 nM |
| P2B-2F6 single chain variable fragment (scFv) | 81.4 nM |  |
